Laboratory results as given in the supplement of paper PMC6757056.
± gives the standard deviation of the averaged measurements.

B1: library; a variant is named by its letters at N, in order (parent)
chain: GCUGUCACCGGUGUAUUACCCUAGUGGUCGACCGGUCUGAUGAGUCUNNNNNNAGACGAAACAGC

Assays:
hypoxanthine [1] = variants of: B1; assay: normalized RNA/DNA level with ligand (relative to sTRSVctl = 100) (log10 (% of sTRSVctl)); ligand: hypoxanthine (xanthine aptamer); higher = less ribozyme self-cleavage, higher mRNA level; settings: ligand concentration (+) RNA-Seq: 5 mM, HEK293T, reporter: mCherry (pCS4076), ligand present: yes
Method in brief: (§1)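 Library plasmids encoding reporter-linked ribozyme switches (mCherry, or eGFP for some folinic acid experiments) were transfected into HEK293T at 4 µg per 6-well well. Ligand, when used, was added 1 h before transfection. Total RNA was extracted with EDTA 72 h later, then reverse-transcribed, amplified, barcoded and sequenced. RNA level was RNA reads over DNA reads, divided by a spiked-in non-cleaving control (or the top 25 sequences), ×100, log10; only sequences with ≥100 DNA reads were kept.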

hypoxanthine [2] = variants of: B1; assay: normalized RNA/DNA level without ligand (relative to sTRSVctl = 100) (log10 (% of sTRSVctl)); ligand: hypoxanthine (xanthine aptamer); higher = less ribozyme self-cleavage, higher mRNA level; settings: HEK293T, reporter: mCherry (pCS4076), ligand present: no
Method in brief: as §1

| Variant | normalized RNA/DNA level with ligand (log10) (hypoxanthine [1]) | normalized RNA/DNA level without ligand (log10) (hypoxanthine [2]) |
| --- | --- | --- |
| CUGAUU | 1.94 ± 0.096 | 1.87 ± 0.031 |
| CUGAUG | 1.936 ± 0.0068 | 1.646 ± 0.0062 |
| CUGAUC | 1.98 ± 0.035 | 1.949 ± 0.019 |
| GUCUUU | 1.946 ± 0.003 | 1.885 ± 0.0085 |
| GUCUUG | 1.9 ± 0.086 | 1.52 ± 0.066 |
| GUCUUC | 1.99 ± 0.042 | 1.9928 ± 0.0007 |
| GUCUUA | 1.932 ± 0.0061 | 1.87 ± 0.021 |
| GUCUCC | 1.99 ± 0.047 | 1.94 ± 0.084 |
| GUCUCA | 1.965 ± 0.019 | 1.943 ± 0.0073 |
| CUCGUA | 1.91 ± 0.02 | 1.907 ± 0.015 |
| CUCGUG | 1.94 ± 0.028 | 1.81 ± 0.025 |
| CUCGUU | 1.94 ± 0.019 | 2.03 ± 0.063 |
| GUCGCU | 2.04 ± 0.038 | 1.904 ± 0.011 |
| GUCGCG | 1.93 ± 0.039 | 1.55 ± 0.055 |
| UUCGCG | 1.9036 ± 0.0015 | 1.84 ± 0.044 |
| UUCGCU | 1.983 ± 0.015 | 1.87 ± 0.049 |
| AUCGCU | 1.91 ± 0.024 | 1.84 ± 0.028 |
| GUCUGC | 1.92 ± 0.038 | 1.707 ± 0.0074 |
| GUCUGG | 1.878 ± 0.016 | 1.48 ± 0.0028 |
| GUCUGU | 1.948 ± 0.018 | 1.841 ± 0.015 |

| Variant | normalized RNA/DNA level with ligand (log10) (hypoxanthine [1]) | normalized RNA/DNA level without ligand (log10) (hypoxanthine [2]) |
| --- | --- | --- |
| GUCUGA | 1.954 ± 0.0094 | 1.79 ± 0.03 |
| AUGAUC | 1.98 ± 0.039 | 1.93 ± 0.022 |
| AUGAUU | 1.92 ± 0.036 | 1.709 ± 0.003 |
| UUGAGU | 1.92 ± 0.026 | 1.75 ± 0.026 |
| GUCGUC | 2.03 ± 0.088 | 1.93 ± 0.058 |
| GUCGUA | 1.91 ± 0.088 | 1.79 ± 0.073 |
| GUCGUU | 1.97 ± 0.057 | 1.89 ± 0.032 |
| GUCGUG | 1.86 ± 0.043 | 1.37 ± 0.018 |
| AUGCAC | 1.91 ± 0.12 | 1.74 ± 0.034 |
| CUGCAC | 1.94 ± 0.057 | 1.869 ± 0.018 |
| CUGCAA | 1.933 ± 0.0062 | 1.773 ± 0.015 |
| UUCUGU | 1.947 ± 0.0095 | 1.883 ± 0.018 |
| UUCUGC | 1.998 ± 0.019 | 1.92 ± 0.049 |
| UUCUGA | 2.03 ± 0.036 | 1.834 ± 0.0034 |
| AUCGGA | 1.94 ± 0.044 | 1.74 ± 0.061 |
| AUCGGU | 1.91 ± 0.02 | 1.6043 ± 0.0014 |
| AUCGGG | 1.889 ± 0.0042 | 1.52 ± 0.06 |
| AUCGGC | 1.97 ± 0.099 | 1.86 ± 0.029 |
| AUCUCA | 1.96 ± 0.071 | 1.89 ± 0.043 |
| AUCUCC | 1.97 ± 0.039 | 1.9 ± 0.058 |

| Variant | normalized RNA/DNA level with ligand (log10) (hypoxanthine [1]) | normalized RNA/DNA level without ligand (log10) (hypoxanthine [2]) |
| --- | --- | --- |
| AUCUCU | 1.99 ± 0.075 | 1.937 ± 0.0021 |
| AUCUCG | 1.89 ± 0.024 | 1.59 ± 0.06 |
| CUCGGA | 1.99 ± 0.03 | 1.84 ± 0.057 |
| UUGAUG | 1.94 ± 0.045 | 1.8 ± 0.029 |
| UUGAUC | 1.952 ± 0.0039 | 2.02 ± 0.035 |
| UUGAUU | 1.98 ± 0.03 | 1.905 ± 0.011 |
| AUCGUC | 2.03 ± 0.048 | 1.977 ± 0.0058 |
| AUCGUU | 1.98 ± 0.08 | 1.87 ± 0.043 |
| AUCGUA | 1.898 ± 0.017 | 1.74 ± 0.024 |
| AUCGUG | 1.82 ± 0.047 | 1.4 ± 0.076 |
| UUCUCC | 1.97 ± 0.072 | 1.99 ± 0.082 |
| UUCUCA | 1.98 ± 0.033 | 1.918 ± 0.013 |
| UUCUCU | 1.99 ± 0.084 | 1.89 ± 0.051 |
| AUGAGU | 1.87 ± 0.026 | 1.44 ± 0.11 |
| AUGAGC | 1.8938 ± 0.00087 | 1.57 ± 0.055 |
| GUGAUA | 1.89 ± 0.073 | 1.75 ± 0.027 |
| GUGAUC | 1.93 ± 0.036 | 1.54 ± 0.13 |
| GUGAUU | 1.92 ± 0.0091 | 1.847 ± 0.0028 |
